What was measured:
[1] = Thermostability assay: residual OTA detoxification activity after 10 min incubation at 45-99° C. (T50); assay type: physicochemical; details: 0.1 mg/mL protein in 20 mM Tris-HCl pH 7.5, residual OTA detoxification activity relative to 4° C. reference aliquot
Procedure, shortened: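 Purified enzyme at 0.1 mg/mL in 20 mM Tris-HCl pH 7.5 was heated 10 min at 45–99 °C, then held at 4 °C. Residual OTA detoxification activity was expressed relative to an aliquot kept at 4 °C throughout; T50 is the temperature range giving 50% activity loss.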

[2] = OTA detoxification activity assay (specific activity, fluorescence reduction ex/em 390/450 nm); assay type: biochemical; details: SEQ ID NO: 2 = 100%
Procedure, shortened: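 Recombinant enzyme preparation with 200 ng/mL OTA in 100 mM sodium phosphate, at pH 6.0 and pH 7.5, 37° C. Degradation followed as the fall in fluorescence at ex/em 390/450 nm. Specific activity taken from the initial linear slope; one unit degrades 1 μmol OTA per min at a starting OTA of […].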

Molecule | T50 (temperature at which 50% of the initial activity was maintained) [1] [°C] | Specific OTA detoxification activities in % compared to the enzyme of SEQ ID NO: 2, pH 6.0 [2] [%] | Specific OTA detoxification activities in % compared to the enzyme of SEQ ID NO: 2, pH 7.5 [2] [%]
40 (protein, exemplary polypeptide) MYSLAIRNGIVFDGEKFIGKTNIYVDGDKIVKITNERLDAKEEVNAEGYFVMPGLIDAHLHLTGIRGGSLLMGYLLDDPRTRLLRAANWARELLMAGFTTVRDCGEPNSIILRNAINEGIIPGPRIIAAGSPITQTFGHAELSHSLPLEWSIQLGFGEICDGVDECIKAARKVLRSGADFIKIMATGGVLSERDRPEWPQLTPEEMSAIVREAEKVGTYVAAHAHGDKGARIAVEAGVRTIEHGSLITEETVKLMAEKGVSLTPTLSIIELIYKYGKQMGIDPWGLEKIGQVREGVINSIKLARKYGVMILAGTDLGFKTGLDIDMGKNWVEVKLLVELGGLSSEEALRAATGNASKMLRLNTGIIREGYLADIVLINGNPLENINDIARVSTVIKGGKVTVENGKLI | >99 | 15.00 | 61.00
44 (protein, exemplary polypeptide) MYSLAIRNGIVFDGEKFIGKTNIYVDGDKIVKITNERLDAKEEVNAEGYFVMPGLIDAHLHLTGIRGGSLLMGYLLDDPRTRLLRAANWARELLMAGFTTVRDCGEPNSIILRNAINEGIIPGPRIIAAGSPITQTFGHAELSHSLPLEWSIQLGFGEICDGVDECIKAARKVLRSGADFIKIMATGGVLSERDRPEWPQLTPEEMSAIVREAEKVGTYVAAHAHGDKGARIAVEAGVRTIEHGSLITEETVKLMAEKGVSLTPTLSIQELVYKYGKQMGIDPWGLEKIGQVREGVINSIKLARKYGVMILAGTDLGFKTGLDIDMGKNWVEVKLLVELGGLSSEEALRAATGNASKMLRLNTGIIREGYLADIVLINGNPLENINDIARVSTVIKGGKVTVENGKLI | >99 | 84.00 | 84.00
35 (protein, exemplary polypeptide) MYSLAIRNGIVFDGEKFIGKTNIYVDGDKIVKITNERLDAKEEVNAEGYFVMPGLIDAHLHLTGGRGGSLLMGYLLDDPRTRLLRAANWARELLMAGFTTVRDCGEPNSIILRNAINEGIIPGPRIIAAGSPITQTFGHAELSHSLPLEWSIQLGFGEICDGVDECIKAARKVLRSGADFIKIMATGGVLSERDRPEWPQLTPEEMSAIVREAEKVGTYVAAHAHGDKGARIAVEAGVRTIEHGSLITEETVKLMAEKGVSLTPTLSIQELIYKYGKQMGIDPWGLEKIGQVREGVINSIKLARKYGVMILAGTDLGFKTGLDIDMGKNWVEVKLLVELGGLSSEEALRAATGNASKMLRLNTGIIREGYLADIVLINGNPLENINDIARVSTVIKGGKVTVENGKLI | 99 | 56.00 | 136.00
41 (protein, exemplary polypeptide) MYSLAIRNGIVFDGEKFIGKTNIYVDGDKIVKITNERLDAKEEVNAEGYFVMPGLIDAHLHLTGIRGGSLLMGYLLDDPRTRLLRAANWARELLMAGFTTVRDCGEPNSIILRNAINEGIIPGPRIIAAGSPITQTFGHAELSHSLPLEWSIQLGFGEICDGVDECIKAARKVLRSGADFIKIMATGGVLSERDRPEWPQLTPEEMSAIVREAEKVGTYVAAHAHGDKGARIAVEAGVRTIEHGSLITEETVKLMAEKGVSLTPTLSIQELIYKVGKQMGIDPWGLEKIGQVREGVINSIKLARKYGVMILAGTDLGFKTGLDIDMGKNWVEVKLLVELGGLSSEEALRAATGNASKMLRLNTGIIREGYLADIVLINGNPLENINDIARVSTVIKGGKVTVENGKLI | 99 | 272.00 | 1551.00
46 (protein, exemplary polypeptide) MYSLAIRNGIVFDGEKFIGKTNIYVDGDKIVKITNERLDAKEEVNAEGYFVMPGLIDAHLHLTGIRGGSLLMGYLLDDPRTRLLRAANWARELLMAGFTTVRDCGEPNSIILRNAINEGIIPGPRIIAAGSPITQTFGHAELSHSLPLEWSIQLGFGEICDGVDECIKAARKVLRSGADFIKIMATGGVLSERDRPEWPQLTPEEMSAIVREAEKVGTYVAAHAHGDKGARIAVEAGVRTIEHGSLITEETVKLMAEKGVSLTPTLSIQELIYKHGKQMGIDPWGLEKIGQVREGVINSIKLARKYGVMILAGTDLGFKTGLDIDMGKNWVEVKLLVELGGLSSEEALRAATGNASKMLRLNTGIIREGYLADIVLINGNPLENINDIARVSTVIKGGKVTVENGKLI | >99 | 82.00 | 66.00
36 (protein, exemplary polypeptide) MYSLAIRNGIVFDGEKFIGKTNIYVDGDKIVKITNERLDAKEEVNAEGYFVMPGLIDAHLHLTGARGGSLLMGYLLDDPRTRLLRAANWARELLMAGFTTVRDCGEPNSIILRNAINEGIIPGPRIIAAGSPITQTFGHAELSHSLPLEWSIQLGFGEICDGVDECIKAARKVLRSGADFIKIMATGGVLSERDRPEWPQLTPEEMSAIVREAEKVGTYVAAHAHGDKGARIAVEAGVRTIEHGSLITEETVKLMAEKGVSLTPTLSIQELIYKYGKQMGIDPWGLEKIGQVREGVINSIKLARKYGVMILAGTDLGFKTGLDIDMGKNWVEVKLLVELGGLSSEEALRAATGNASKMLRLNTGIIREGYLADIVLINGNPLENINDIARVSTVIKGGKVTVENGKLI | 99 | 117.00 | 309.00
45 (protein, exemplary polypeptide) MYSLAIRNGIVFDGEKFIGKTNIYVDGDKIVKITNERLDAKEEVNAEGYFVMPGLIDAHLHLTGIRGGSLLMGYLLDDPRTRLLRAANWARELLMAGFTTVRDCGEPNSIILRNAINEGIIPGPRIIAAGSPITQTFGHAELSHSLPLEWSIQLGFGEICDGVDECIKAARKVLRSGADFIKIMATGGVLSERDRPEWPQLTPEEMSAIVREAEKVGTYVAAHAHGDKGARIAVEAGVRTIEHGSLITEETVKLMAEKGVSLTPTLSIQELIYKFGKQMGIDPWGLEKIGQVREGVINSIKLARKYGVMILAGTDLGFKTGLDIDMGKNWVEVKLLVELGGLSSEEALRAATGNASKMLRLNTGIIREGYLADIVLINGNPLENINDIARVSTVIKGGKVTVENGKLI | >99 | 168.00 | 138.00
42 (protein, exemplary polypeptide) MYSLAIRNGIVFDGEKFIGKTNIYVDGDKIVKITNERLDAKEEVNAEGYFVMPGLIDAHLHLTGIRGGSLLMGYLLDDPRTRLLRAANWARELLMAGFTTVRDCGEPNSIILRNAINEGIIPGPRIIAAGSPITQTFGHAELSHSLPLEWSIQLGFGEICDGVDECIKAARKVLRSGADFIKIMATGGVLSERDRPEWPQLTPEEMSAIVREAEKVGTYVAAHAHGDKGARIAVEAGVRTIEHGSLITEETVKLMAEKGVSLTPTLSIQELIYKYGKQMGIDPWGLEKIGQVREGVINSIKLARKYGVMILAGTDLGVKTGLDIDMGKNWVEVKLLVELGGLSSEEALRAATGNASKMLRLNTGIIREGYLADIVLINGNPLENINDIARVSTVIKGGKVTVENGKLI | >99 | 131.00 | 595.00
43 (protein, exemplary polypeptide) MYSLAIRNGIVFDGEKFIGKTNIYVDGDKIVKITNERLDAKEEVNAEGYFVMPGLIDAHLHLTGIRGGSLLMGYLLDDPRTRLLRAANWARELLMAGFTTVRDCGEPNSIILRNAINEGIIPGPRIIAAGSAITQTFGHAELSHSLPLEWSIQLGFGEICDGVDECIKAARKVLRSGADFIKIMATGGVLSERDRPEWPQLTPEEMSAIVREAEKVGTYVAAHAHGDKGARIAVEAGVRTIEHGSLITEETVKLMAEKGVSLTPTLSIQELIYKYGKQMGIDPWGLEKIGQVREGVINSIKLARKYGVMILAGTDLGFKTGLDIDMGKNWVEVKLLVELGGLSSEEALRAATGNASKMLRLNTGIIREGYLADIVLINGNPLENINDIARVSTVIKGGKVTVENGKLI | >99 | 46.00 | 19.00
47 (protein, exemplary polypeptide) MYSLAIRNGIVFDGEKFIGKTNIYVDGDKIVKITNERLDAKEEVNAEGYFVMPGLIDAHLHLTGARGGSLLMGYLLDDPRTRLLRAANWARELLMAGFTTVRDCGGPNSIILRNAINEGIIPGPRIIAAGSAITQTFGHAELSHSLPLEWSIQLGFGEICDGVDECIKAARKVLRSGADFIKIMATGGVLSERDRPEWPQLTPEEMSAIVREAEKVGTYVAAHAHGDKGARIAVEAGVRTIEHGSLITEETVKLMAEKGVSLTPTLSAIELVYKVGKQMGIDPWGLEKIGQVREGVINSIKLARKYGVMILAGTDLGVKTGLDIDMGKNWVEVKLLVELGGLSSEEALRAATGNASKMLRLNTGIIREGYLADIVLINGNPLENINDIARVSTVIKGGKVTVENGKLI | >99 | 85.00 | 267.00
